# Target: ARTD2WGR-RD-ART (Homo sapiens, UniProt Q9UGN5 90-583)
# Experiment: X-ray crystallography
# Chain of ARTD2WGR-RD-ART (Q9UGN5 90-583): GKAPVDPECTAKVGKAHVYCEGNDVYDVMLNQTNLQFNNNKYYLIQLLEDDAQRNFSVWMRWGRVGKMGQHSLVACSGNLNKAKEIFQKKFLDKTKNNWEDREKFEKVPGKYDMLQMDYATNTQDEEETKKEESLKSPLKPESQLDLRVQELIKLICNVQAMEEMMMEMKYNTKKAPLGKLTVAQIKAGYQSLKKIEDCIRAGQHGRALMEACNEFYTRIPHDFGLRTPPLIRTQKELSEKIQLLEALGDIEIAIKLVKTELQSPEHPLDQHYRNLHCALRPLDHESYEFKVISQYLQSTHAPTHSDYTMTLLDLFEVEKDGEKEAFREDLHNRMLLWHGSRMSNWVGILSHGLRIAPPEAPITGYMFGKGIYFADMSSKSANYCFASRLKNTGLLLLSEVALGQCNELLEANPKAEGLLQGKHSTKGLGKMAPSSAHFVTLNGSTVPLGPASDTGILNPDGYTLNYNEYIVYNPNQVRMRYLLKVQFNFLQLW
binder,measurement,value
"DNA-1 (dsDNA, 5'-phosphate on forward strand) DNA 1: GACGACCCGGAGCACA DNA 2: TGTGCTCCGGGTCGTC",binding result,binds

# From article doi:10.1101/2020.11.24.395475
